Like-named read-outs stand apart in the source and are kept apart here.

Data set [1] addresses human diacylglycerol kinase ζ (DGKζ) (human).
Data set [2] has as its system protein kinase M (PKM), catalytic fragment of mixed rat brain PKC isozymes. Particulars: comparison values for MARCKS and MRP synthetic peptides; read-out: S0.5 for phosphorylation by PKM; cited from earlier work.
For data set [3] the test system is unchanged. The data set is described as follows: Phosphorylation of peptides by PKM (kinetics). To be noted: for Km: FIG. 15C. In kind it is biochemical. How it is done:
Phosphorylation of peptides and proteins--Peptides were phosphorylated by the purified catalytic fragment of mixed rat brain PKC isozymes (protein kinase M; PKM). In all cases involving kinetic measurements, the peptides were phosphorylated by PKM (1:120 dilution of frozen stock solution) at 30° C. All reactions were performed in the linear range of peptide phosphorylation, in an assay mixture containing 40 mM Hepes (pH 7.4), 0.25 mM EGTA, 12.5 mM MgCl2, 75 μM y-[^32 P]ATP, and various concentrations of peptides. In the peptide experiments, the reactions were stopped after 10 minutes by the addition of 1/5 vol of 5×SDS sample buffer, boiled for 5 minutes and then subjected to electrophoresis on 20% acrylamide gels. After the gels were dried, the phosphorylated peptides were localized by autoradiography, excised from the gel, and subjected to Cerenkov scintillation counting.

Data set [4] has as its target protein kinase M (PKM), catalytic fragment of mixed rat brain PKC isozymes. The data set is described as follows: Inhibition of PKM phosphorylation of histone IIIS. In kind it is biochemical. Particulars: histone IIIS as substrate, 10 minute reaction; read-out: half-maximal inhibition of PKM. How it is done: When the inhibitory effects of the DGK A/S peptide were assayed, histone IIIS (final concentration 20 μg/ml or as specified) was used as a substrate for PKM (1:80 dilution of frozen stock) in the reaction mixture described above. The reaction was linear for at least 40 minutes at 30° C.; 10 and 15 minute time points were chosen to evaluate inhibitory effects of the peptide. The peptide was added to the reaction mixture for 10 min at 30° C. in a shaking water bath before the reactions were started by the addition of Mg/ATP; samples were assayed using filter papers (P81, Whatman) and trichloroacetic acid precipitation.

In a further data set the target is T1, DGK.zeta.-2 (Homo sapiens, UniProt Q13574).
T1 construct: the DGK.zeta.-2 cDNA was subcloned into an expression vector and transfected into COS-7 cells; expressed in transfected cells; host or cells: COS-7
The data set can be described thus: DGK activity assay, homogenates of DGK.zeta.-2-transfected COS-7 cells. It counts as biochemical. How it is done:
DAG Kinase Assay--Cell homogenates were sonicated twice with 5 watts for 5 at 4° C. The protein concentration of each cell homogenate was measured following trichloracetic acid precipitation utilizing the BCA protein assay reagent (Pierce). Each assay contained 50 mM MOPS, pH 7.2, 100 mM NaCl, 20 mM MgCl2, 1 mM EGTA, 1 mM dithiothreitol, 2 mM 1,2-dieleoyl-an-glycerol, 3.5 mM phosphatidylserine, 75 mM octyl-β-glucopyranoside, 500 μM [γ^32 ]ATP, and 0-20 μg of cell homogenate in a volume of 200 μl. For substrate specificity experiments, various diacylglycerol species were substituted for 1,2-dioleoyl-an-glycerol. The reactions were initiated by the addition of ATP (20-30 μCi/μmol), were incubated for 10 min. At 24° C., and were terminated by the addition of 200 μl of 1% perchloric acid. […] Fifty μl of each sample were counted directly by liquid acintillation spectrometry, and the remainder was applied to a 20×20 cm Silica 60A thin layer chromatography plate (Whatman). […] The region containing phosphatidic acid (as indicated by radiolabeled standards) and the remaining areas of each lane were scraped separately, and the radioactivity was estimated by liquid scintillation spectrometry. The amount of phosphatidic acid formed per reaction was calculated as [2(direct count)(PA cpm)(total lane cpm)]×[mole ATP/cpm]. […]

Data set [5] addresses DGK peptide, 18 amino acid peptide corresponding to residues 256-273 of DGKζ (human).
For data set [6], the target named is DGK A/S peptide, the DGK peptide with an alanine substituted for the serine at residue 10 (human).
Data set [7] concerns the target protein kinase M (PKM), purified catalytic fragment of mixed rat brain PKC isozymes (rat).

T1 sequence (Q13574 1-1117 isoform Q13574-1 Q21R/L159V/L166C/L167C): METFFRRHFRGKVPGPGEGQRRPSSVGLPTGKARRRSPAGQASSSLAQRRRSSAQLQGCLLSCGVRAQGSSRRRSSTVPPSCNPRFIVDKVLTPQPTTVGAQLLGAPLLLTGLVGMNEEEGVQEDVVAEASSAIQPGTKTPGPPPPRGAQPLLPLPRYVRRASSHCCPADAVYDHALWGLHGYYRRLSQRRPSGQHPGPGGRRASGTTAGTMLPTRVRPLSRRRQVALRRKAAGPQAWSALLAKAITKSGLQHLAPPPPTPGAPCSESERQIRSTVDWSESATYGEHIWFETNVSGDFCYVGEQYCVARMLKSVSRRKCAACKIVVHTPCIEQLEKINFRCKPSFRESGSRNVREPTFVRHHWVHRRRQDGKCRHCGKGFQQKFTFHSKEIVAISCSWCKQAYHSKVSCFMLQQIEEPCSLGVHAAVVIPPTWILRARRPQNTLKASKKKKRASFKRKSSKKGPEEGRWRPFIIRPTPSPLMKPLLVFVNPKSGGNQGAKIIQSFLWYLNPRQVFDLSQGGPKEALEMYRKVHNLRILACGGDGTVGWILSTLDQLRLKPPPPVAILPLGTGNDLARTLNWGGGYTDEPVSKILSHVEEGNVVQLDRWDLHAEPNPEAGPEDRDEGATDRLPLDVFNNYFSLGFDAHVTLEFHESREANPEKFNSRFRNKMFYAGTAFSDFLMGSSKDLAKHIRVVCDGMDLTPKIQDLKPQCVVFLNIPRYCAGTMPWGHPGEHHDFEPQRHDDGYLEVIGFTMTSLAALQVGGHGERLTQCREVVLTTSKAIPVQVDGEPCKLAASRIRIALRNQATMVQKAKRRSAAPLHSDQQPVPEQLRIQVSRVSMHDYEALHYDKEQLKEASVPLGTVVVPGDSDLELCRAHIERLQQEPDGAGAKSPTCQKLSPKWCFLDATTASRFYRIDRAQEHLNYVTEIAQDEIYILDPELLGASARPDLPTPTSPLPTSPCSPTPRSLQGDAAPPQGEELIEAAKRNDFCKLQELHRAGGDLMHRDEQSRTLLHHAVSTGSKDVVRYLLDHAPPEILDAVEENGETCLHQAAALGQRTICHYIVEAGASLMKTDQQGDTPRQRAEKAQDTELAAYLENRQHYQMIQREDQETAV

The molecule “human protein kinase C γ (PKCγ) (from UniProt P05129) (enzyme)” showed a nuclear localization of DGKζ by subcellular fractionation and immunoblotting in data set [1] of more than 50%.

As to “MARCKS: MARCKS synthetic peptide phosphorylated by PKM (KASKKKKRASFKRKSSKK)”, the Km in data set [2] was 0.02 µM.

With “DGK(A/S) peptide: same peptide with an alanine substituted for the serine at residue 10 (SEQ ID NO: 16) (KASKKKKRAAFKRKSSKK)”, the “rate of phosphorylation relative to native peptide” value in data set [3] (0.2 mM peptide, identical conditions) is “approximately 1/6”. Besides, the Km in data set [3] (read-out: Km of possible second, still lower affinity site) was more than 800 µM; in data set [3] (initial portion of the rectangular hyperbola, read-out: Km as substrate for PKM), approximately 50 µM. For the same molecule, the IC50 in data set [4] is approximately 800 nM.

“DGK.zeta.-2: alternatively spliced muscle form of DGK.zeta., 1,117 amino acid protein (SEQ ID NO: 6)” gave a DGK activity with DGK.zeta.-2 (1,2-dicapryl-sn-glycerol substrate, typical experiment, FIG. 21) of 6.8 nmol/mg/min. Moreover, the “DAG kinase activity relative to vector alone” value with DGK.zeta.-2 (transfected COS-7 homogenates) was “more than 50 fold”.

Regarding “protein kinase M (PKM), purified catalytic fragment of mixed rat brain PKC isozymes (pool or library)”, the Km of phosphorylation of the peptide by PKM was determined as 0.5 µM in data set [5] and 50 µM in data set [6]. Further, the Km of a possible second phosphorylation site in data set [6] was more than 800 µM.

B1: DGK A/S peptide, the DGK peptide with an alanine substituted for the serine at residue 10 (peptide)
peptide: KASKKKKRAAFKRKSSKK
As for B1, the half-maximal inhibition of PKM phosphorylation of histone IIIS in data set [7] was found to be 800 nM.

The values above are taken from US5976875A, “Diacylglycerol kinase isoforms epsilon and zeta and methods of use thereof” (priority 1997, dated 1999).
